Results reported in US20260234261A1 (published 2026).
Read-outs that look alike come from different tables or passages of the source.

What was measured:
Assay in all cases: FACS binding
[1] = target: T1, human CTLA4 and human CCR8 co-expressed on CHOS-hCTLA4/hCCR8 double-positive cells (human, UniProt P16410 36-223; P51685 1-355)
[2] = target: T2, human CTLA4 (overexpressed on CHOS-hCTLA4 cells) (human, UniProt P16410 36-223)
[3] = target: T1, human CTLA4 and human CCR8 co-expressed …; remark: listed apart in the source
[4] = target: T3, human CCR8 (overexpressed on CHOS-hCCR8 cells) (human, UniProt P51685 1-355)
[5] = target: T2, human CTLA4 (overexpressed on …); remark: listed apart in the source
[6] = target: T1, human CTLA4 and human CCR8 co-expressed …; remark: listed apart in the source
[7] = target: T3, human CCR8 (overexpressed on CHOS-hCCR8 …); remark: listed apart in the source
[8] = target: T3, human CCR8 (overexpressed on CHOS-hCCR8 …); remark: listed apart in the source
[9] = target: T2, human CTLA4 (overexpressed on …); remark: listed apart in the source
[10] = target: T1, human CTLA4 and human CCR8 co-expressed …; remark: listed apart in the source
[11] = target: T3, human CCR8 (overexpressed on CHOS-hCCR8 …); remark: listed apart in the source

T2 sequence (P16410 36-223): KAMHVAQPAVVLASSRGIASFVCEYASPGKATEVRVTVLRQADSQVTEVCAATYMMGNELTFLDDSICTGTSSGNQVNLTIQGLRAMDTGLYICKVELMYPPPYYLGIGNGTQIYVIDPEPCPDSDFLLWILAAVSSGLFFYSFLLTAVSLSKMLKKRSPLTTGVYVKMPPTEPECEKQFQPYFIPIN
T1 sequence (P16410 36-223, chain 1 of 2): as the sequence (P16410 36-223) above
T1 sequence (P51685 whole entry, chain 2 of 2): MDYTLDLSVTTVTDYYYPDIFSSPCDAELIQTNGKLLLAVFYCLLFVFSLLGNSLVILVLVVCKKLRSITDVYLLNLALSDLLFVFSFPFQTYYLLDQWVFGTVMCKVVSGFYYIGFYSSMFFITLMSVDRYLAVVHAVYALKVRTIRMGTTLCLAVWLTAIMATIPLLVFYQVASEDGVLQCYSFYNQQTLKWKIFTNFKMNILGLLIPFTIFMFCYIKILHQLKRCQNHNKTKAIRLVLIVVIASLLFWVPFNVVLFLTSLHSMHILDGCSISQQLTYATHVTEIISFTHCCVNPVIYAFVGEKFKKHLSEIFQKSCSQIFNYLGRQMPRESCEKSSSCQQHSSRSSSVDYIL
T3 sequence (P51685 whole entry): as the sequence (P51685 whole entry, chain 2 of 2) above

B1: Anti-CTLA4(ip-0508) (antibody, V domains shown)
VH: EVQLVESGGGVVQPGRSLRLSCAASGFTFSSYTMHWVRQAPGKGLEWVTFISEDGNNKYYADSVKGRFTISRDNSKNTLYLQMNSLRAEDTAIYYCARTGWLGPEDYWGQGTLVTVSS
VL: not shown
EC50 [1]: 361 nM

B2: Anti-CTLA4(ip-05)-1 Afu (antibody, V domains shown)
VH: EVQLVESGGGVVQPGRSLRLSCAASGFTFSSYTMHWVRQAPGKGLEWVTFISEDGNNKYYADSVKGRFTISRDNSKNTLYLQMNSLRAEDTAIYYCARTGWLGPFDYWGQGTLVTVSS
VL: not shown
EC50 [2]: 3.98 nM
EC50 [3]: 98.2 nM
EC50 [4]: 51.7 nM

B3: Anti-CTLA4(ip-05)-1 (antibody, V domains shown)
VH: EVQLVESGGGVVQPGRSLRLSCAASGFTFSSYTMHWVRQAPGKGLEWVTFISEDGNNKYYADSVKGRFTISRDNSKNTLYLQMNSLRAEDTAIYYCARTGWLGPFDYWGQGTLVTVSS
VL: not shown
EC50 [5]: 3.6 nM
EC50 [6]: 11.8 nM

B4: ONC-392 Analog (antibody, V domains shown)
VH: QVQLQESGPGLVKPSETLSLTCTVSGFSLTSYGLSWIRQPPGKGLEWIGYIWYDGNTNFHSPLKSRVTISVDTSKNQFSLKLSSVTAADTAVYYCAKTEGHYYGSNYGYYALDYWGQGTLVTVSS
VL: DIQMTQSPSSLSASVGDRVTITCRASENIYSNLAWYQQKQGKAPKLLLYAATNLQDGVPSRFSGSGSGTDYTLTISSLQPEDFATYFCQHLWGTPYTFGQGTKLEIKR
EC50 [2]: 0.521 nM
EC50 [3]: 0.623 nM

B5: Anti-CCR8(ADI68741-R2-21-DA)-Afu (antibody, V domains shown)
VH: EVQLVQSGAEVKKPGASVKVSCKASGYTFTSYYMHWVRQAPGQGLEWMGIINPMTGSASHAQKFQGRVTMTRDTSTSTVYMELSSLRSEDTAVYYCVRDAAARHKYFAFWGRGTLVTVSS
VL: EIVLTQSPATLSLSPGERATLSCRASQSVSSYLAWYQQKPGQAPRLLIYDASNRATGIPARFSGSGSGTDFTLTISSLEPEDFAVYYCQQYSAWPLTFGGGTKVEIKR
EC50 [3]: 22.2 nM

B6: Anti-CCR8(ADI68741)-1 Afu (antibody, V domains shown)
VH: EVQLVQSGAEVKKPGASVKVSCKASGYTFTSYYMHWVRQAPGQGLEWMGIINPGTGSTSHAQKFQGRVTMTRDTSTSTVYMELSSLRSEDTAVYYCARDGAFRHKYFDLWGRGTLVTVSS
VL: EIVLTQSPATLSLSPGERATLSCRASQSVSSYLAWYQQKPGQAPRLLIYDASNRATGIPARFSGSGSGTDFTLTISSLEPEDFAVYYCQQYSAWPLTFGGGTKVEIKR
EC50 [3]: 0.595 nM

B7: Anti-CCR8(ADI68741)-1 (antibody, V domains shown)
VH: EVQLVQSGAEVKKPGASVKVSCKASGYTFTSYYMHWVRQAPGQGLEWMGIINPGTGSTSHAQKFQGRVTMTRDTSTSTVYMELSSLRSEDTAVYYCARDGAFRHKYFDLWGRGTLVTVSS
VL: EIVLTQSPATLSLSPGERATLSCRASQSVSSYLAWYQQKPGQAPRLLIYDASNRATGIPARFSGSGSGTDFTLTISSLEPEDFAVYYCQQYSAWPLTFGGGTKVEIKR
EC50 [6]: 0.351 nM
EC50 [7]: 0.743 nM
EC50 [1]: 0.194 nM
EC50 [8]: 0.215 nM

B8: Anti-CTLA4(ip-05)×CCR8-6 (bispecific antibody)
heavy 1: not shown
light 1: not shown
heavy 2: not shown
light 2: EIVLTQSPATLSLSPGERATLSCRASQSVSSYLAWYQQKPGQAPRLLIYDASNRATGIPARFSGSGSGTDFTLTISSLEPEDFAVYYCQQYSAWPLTFGGGTKVEIKRTVAAPSVFIFPPSDEELKSGTASVQCLLNNFYPREAKVQWKVDNALQSGNSQESVTEQDSKDSTYSLSSELTLSKADYEKHKVYACEVTHQGLSSPVTKSFNRGEC
EC50 [9]: 28.2 nM
EC50 [10]: 11.3 nM
EC50 [11]: 6.55 nM

B9: Anti-CTLA4(ip-05)×CCR8-4 (bispecific antibody)
heavy 1: not shown
light 1: not shown
heavy 2: not shown
light 2: EIVLTQSPATLSLSPGERATLSCRASQSVSSYLAWYQQKPGQAPRLLIYDASNRATGIPARFSGSGSGTDFTLTISSLEPEDFAVYYCQQYSAWPLTFGGGTKVEIKRTVAAPSVFIFPPSDEQLKSGRASVVCLLNNFYPREAKVQWKVDNALQSGNSQESVTEQDSKDSTYSLSSRLQLSKADYEKHKVYACEVTHQGLSSPVTKSFNRGEC
EC50 [9]: 77.4 nM
EC50 [10]: 20.8 nM
EC50 [11]: 43.9 nM
